Substitutions are numbered along the chain they refer to. Numbers in names are those of the source.
B1: GST-1L3V (glutathione S-transferase fused L3V domain of IP3R1) (other, not shown: a dimerising Fc or GST; large carriers; small tags and cut ends)
chain: KDDFILEVDRLPNETAVPETGESLANDFLYSDVCRVETGENCTSPAPKEELLPAEETEQDKEHTCE
notes: Expressed in E. coli, purified on GSH-Sepharose; also called GST-L3V
B2: MBP-ERp44 (maltose binding protein fused ERp44) (other, mouse, UniProt Q9D1Q6 30-406, looked up, not shown: large carriers)
chain: EIASLDSENIDEILNNADVALVNFYADWCRFSQMLHPIFEEASDVIKEEYPDKNQVVFARVDCDQHSDIAQRYRISKYPTLKLFRNGMMMKREYRGQRSVKALADYIRQQKSNPVHEIQSLDEVTNLDRSKRNIIGYFEQKDSENYRVFERVASILHDDCAFLSAFGDLSKPERYNGDNVIYKPPGRSAPDMVYLGSMTNFDVTYNWIQDKCVPLVREITFENGEELTEEGLPFLILFHMKDDTESLEIFQNEVARQLISEKGTINFLHADCDKFRHPLLHIQKTPADCPVIAIDSFRHMYVFGDFKDVLIPGKLKQFVFDLHSGKLHREFHHGPDPTDTAPGEQDQDVASSPPESSFQKLAPSEYRYTLLRDRDEL
B3: HA-ERp44 (haemagglutinin A epitope-tagged ERp44) (other, mouse, UniProt Q9D1Q6 30-406, looked up, not shown: small tags and cut ends)
chain: B2 chain
notes: whole, on cells; tagged vectors made by PCR
B4: ERp44-C58S (other, UniProt Q9D1Q6 30-406, looked up)
chain: B2 chain with C29S
notes: whole, on cells

Key:
[1] = target: MBP (maltose binding protein alone) (UniProt P0AEX9 27-392 = MBP); assay: GST pull-down, pH 5.2, 4 mM Ca2+
[2] = target: B2; assay: GST pull-down, acid buffer with Ca2+
[3] = target: IP3R1 of mouse cerebellar microsomes in planar lipid bilayer (mouse, UniProt P11881 1-2749); assay: cell-based or functional assay
[4] = target: T1, GFP-IP3R1 (IP3R1 fused N-terminally with green fluorescent protein) (UniProt P11881 1-2749); assay: co-immunoprecipitation from COS-7 cells exposed to ATP (activator of purinergic receptors), DSP crosslink
T1 construct: Expressed in COS-7 or DT40-TKO cells; also called GFP-IP3R1-N; not shown: green fluorescent protein
T1 sequence (P11881 whole entry, the tested form may be a part): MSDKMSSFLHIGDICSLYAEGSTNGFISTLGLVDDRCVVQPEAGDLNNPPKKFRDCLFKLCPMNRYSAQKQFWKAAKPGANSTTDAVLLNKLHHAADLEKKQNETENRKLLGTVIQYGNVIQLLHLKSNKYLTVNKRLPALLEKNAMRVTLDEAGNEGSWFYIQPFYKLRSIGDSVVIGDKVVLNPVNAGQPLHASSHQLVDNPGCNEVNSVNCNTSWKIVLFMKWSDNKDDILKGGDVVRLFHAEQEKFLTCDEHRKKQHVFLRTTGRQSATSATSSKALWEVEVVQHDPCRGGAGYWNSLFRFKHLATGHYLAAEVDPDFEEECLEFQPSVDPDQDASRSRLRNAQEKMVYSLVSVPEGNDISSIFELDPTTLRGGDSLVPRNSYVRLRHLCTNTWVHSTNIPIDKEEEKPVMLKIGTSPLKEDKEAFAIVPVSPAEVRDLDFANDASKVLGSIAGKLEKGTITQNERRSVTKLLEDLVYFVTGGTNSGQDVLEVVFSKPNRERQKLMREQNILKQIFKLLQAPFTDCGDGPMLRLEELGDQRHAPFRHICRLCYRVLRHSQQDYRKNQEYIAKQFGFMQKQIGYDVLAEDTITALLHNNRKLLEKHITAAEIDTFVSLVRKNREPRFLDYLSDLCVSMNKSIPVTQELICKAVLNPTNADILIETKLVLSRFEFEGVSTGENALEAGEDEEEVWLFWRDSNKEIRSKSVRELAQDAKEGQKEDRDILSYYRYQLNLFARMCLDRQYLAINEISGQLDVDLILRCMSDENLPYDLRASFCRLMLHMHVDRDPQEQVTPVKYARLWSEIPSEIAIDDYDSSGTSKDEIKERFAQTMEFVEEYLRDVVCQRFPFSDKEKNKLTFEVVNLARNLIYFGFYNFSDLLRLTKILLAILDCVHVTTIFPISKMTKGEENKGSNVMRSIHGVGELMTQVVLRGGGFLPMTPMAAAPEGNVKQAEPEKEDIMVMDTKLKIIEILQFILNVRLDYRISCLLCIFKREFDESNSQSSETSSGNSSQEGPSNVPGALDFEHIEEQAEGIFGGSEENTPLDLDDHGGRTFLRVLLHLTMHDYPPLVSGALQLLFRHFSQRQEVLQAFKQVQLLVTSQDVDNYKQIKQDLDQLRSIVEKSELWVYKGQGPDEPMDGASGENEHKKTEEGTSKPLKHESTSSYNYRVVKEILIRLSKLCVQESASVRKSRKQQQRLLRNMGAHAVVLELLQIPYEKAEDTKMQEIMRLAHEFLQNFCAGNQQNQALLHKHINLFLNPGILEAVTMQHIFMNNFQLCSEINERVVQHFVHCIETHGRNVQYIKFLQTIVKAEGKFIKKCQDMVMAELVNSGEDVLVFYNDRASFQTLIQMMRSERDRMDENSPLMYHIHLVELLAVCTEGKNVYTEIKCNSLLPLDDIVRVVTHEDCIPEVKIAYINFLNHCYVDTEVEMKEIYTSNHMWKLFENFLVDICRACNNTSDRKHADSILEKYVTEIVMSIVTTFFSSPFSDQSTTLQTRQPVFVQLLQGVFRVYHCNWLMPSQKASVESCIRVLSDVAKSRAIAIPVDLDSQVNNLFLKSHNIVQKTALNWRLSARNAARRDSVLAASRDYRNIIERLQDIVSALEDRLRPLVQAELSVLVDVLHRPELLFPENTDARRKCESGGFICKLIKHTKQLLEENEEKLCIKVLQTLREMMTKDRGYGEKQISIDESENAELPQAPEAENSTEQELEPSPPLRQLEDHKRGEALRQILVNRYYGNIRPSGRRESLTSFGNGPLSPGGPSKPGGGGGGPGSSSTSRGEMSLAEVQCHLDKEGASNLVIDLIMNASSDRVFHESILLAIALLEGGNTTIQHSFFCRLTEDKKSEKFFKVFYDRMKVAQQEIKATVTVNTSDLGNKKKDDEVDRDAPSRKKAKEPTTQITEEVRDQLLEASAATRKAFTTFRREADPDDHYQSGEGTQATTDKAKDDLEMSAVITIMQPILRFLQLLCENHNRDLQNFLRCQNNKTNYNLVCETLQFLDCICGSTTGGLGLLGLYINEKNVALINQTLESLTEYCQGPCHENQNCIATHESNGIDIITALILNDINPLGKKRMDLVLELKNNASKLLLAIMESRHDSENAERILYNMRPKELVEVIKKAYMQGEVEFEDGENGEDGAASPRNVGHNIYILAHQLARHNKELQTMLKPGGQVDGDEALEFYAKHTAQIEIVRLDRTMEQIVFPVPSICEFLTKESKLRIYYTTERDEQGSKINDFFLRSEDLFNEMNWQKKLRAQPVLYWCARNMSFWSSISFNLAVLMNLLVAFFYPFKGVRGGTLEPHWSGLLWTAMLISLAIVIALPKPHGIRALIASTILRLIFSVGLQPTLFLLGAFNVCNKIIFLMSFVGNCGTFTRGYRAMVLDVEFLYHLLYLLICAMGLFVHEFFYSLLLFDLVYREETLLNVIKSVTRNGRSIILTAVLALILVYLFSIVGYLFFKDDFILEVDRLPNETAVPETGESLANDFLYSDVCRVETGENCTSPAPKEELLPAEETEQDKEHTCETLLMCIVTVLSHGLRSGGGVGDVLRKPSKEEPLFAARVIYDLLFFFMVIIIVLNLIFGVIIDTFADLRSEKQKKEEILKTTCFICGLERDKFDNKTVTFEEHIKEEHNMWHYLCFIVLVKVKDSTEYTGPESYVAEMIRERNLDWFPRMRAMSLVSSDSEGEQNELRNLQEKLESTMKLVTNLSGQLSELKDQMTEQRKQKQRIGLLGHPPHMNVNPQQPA

[5] = target: T2, IP3R1 (inositol 1,4,5-trisphosphate receptor type 1), untagged, expressed in cells (mouse, UniProt P11881 1-2749); assay: interaction in transfected cells; data not shown
T2 construct: whole, on cells; ER membrane channel; species is printed for the DT40-KMN60 line, not for the COS-7 vector; also called mouse IP3R1 in DT40-KMN60 cells

**Q.** Does B1 bind [1]?
**A.** no binding

**Q.** Does B1 bind [2]?
**A.** binds

**Q.** B2 was tested. Which “Single-channel open probability (IC50)” value [3] did it give?
**A.** 1000 nM

**Q.** B3 was tested. Which “fold increase of GFP-IP3R1 co-precipitated with HA-ERp44 after the treatment against untreated cells” value [4] did it give?
**A.** ~2 fold

**Q.** Does B4 bind [5]?
**A.** binds
